The target in the experiment is recombinant stabilised complete spike protein (SARS-CoV-2), pre-fusion (SARS-CoV-2) (UniProt P0DTC2). Briefly: affinity purification with mass spectrometry.

In the case of “human serum albumin (from UniProt P02768 25-609) (natural protein)”, the mean MALDI-ToF peak intensity of HSA eluted from the beads was determined as 1920 AU.

Values taken from publication PMC9030890.
